In doi:10.64898/2025.12.15.694324, “Dimerization of human PARP15 is required for NAD^+ binding and automodification” (bioRxiv, 2025):

Biological target: the molecule itself
Assay: SEC-MALS; 50 µg of each sample, Superdex 200 increase 10/300, 30 mM HEPES pH 7.5, 300 mM NaCl, 5 % glycerol, 0.5 mM TCEP

B1: PARP15^FL WT, full-length long isoform 1 of human PARP15 (enzyme, UniProt Q460N3 1-678, looked up)
chain: MAAPGPLPAAALSPGAPTPRELMHGVAGVTSRAGRDREAGSVLPAGNRGARKASRRSSSRSMSRDNKFSKKDCLSIRNVVASIQTKEGLNLKLISGDVLYIWADVIVNSVPMNLQLGGGPLSRAFLQKAGPMLQKELDDRRRETEEKVGNIFMTSGCNLDCKAVLHAVAPYWNNGAETSWQIMANIIKKCLTTVEVLSFSSITFPMIGTGSLQFPKAVFAKLILSEVFEYSSSTRPITSPLQEVHFLVYTNDDEGCQAFLDEFTNWSRINPNKARIPMAGDTQGVVGTVSKPCFTAYEMKIGAITFQVATGDIATEQVDVIVNSTARTFNRKSGVSRAILEGAGQAVESECAVLAAQPHRDFIITPGGCLKCKIIIHVPGGKDVRKTVTSVLEECEQRKYTSVSLPAIGTGNAGKNPITVADNIIDAIVDFSSQHSTPSLKTVKVVIFQPELLNIFYDSMKKRDLSASLNFQSTFSMTTCNLPEHWTDMNHQLFCMVQLEPGQSEYNTIKDKFTRTCSSYAIEKIERIQNAFLWQSYQVKKRQMDIKNDHKNNERLLFHGTDADSVPYVNQHGFNRSCAGKNAVSYGKGTYFAVDASYSAKDTYSKPDSNGRKHMYVVRVLTGVFTKGRAGLVTPPPKNPHNPTDLFDSVTNNTRSPKLFVVFFDNQAYPEYLITFTA
modifications: weakly MARylated from expression in Sf21 insect cells
notes: PARP15, human, full-length canonical isoform 1 (the longer isoform, both macrodomains present); Cloned in pFastBac-His-MBP (#30116); tags cleaved with TEV protease; source: Sf21 insect cells (baculovirus), purified (Ni-NTA, amylose resin, TEV cleavage, SEC)
Q: How did the “stoichiometry N” value turn out when B1 was run?
A: Its value is ~2.
